Results as given in the NTF2 design screens of Basanta et al. (2020).

Test: protease stability score; higher = more stable; yeast display proteolysis, trypsin and chymotrypsin;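 further: relative to predicted unfolded state with 0 unfolded-like and 1 meaning tenfold more protease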

Sequence | protease stability score
SEDEEVLEWAIKIVILALKTGDEDLFRKLADPTMRTEINGVILHGWKEVLRSLKELRVHHVRIERVEVINGRVHVDSREDVEFNGVRYETITHLVIEKVDGRWLMHSLKVE | 2.06
DKEEVEKIAREALEAAVKGDEDKLKTYLGPDVKYVLGDQEYQGQQVAELVMKLIKKDGARLQLETLKVEGNTVQAQYQFHVDGVTRKAHITMKVKGGRVDEWQVHIDDHAKEALKKG | 1.89
DDESEHSMKVFRFWAEARETGDEDTLTRLLDPHARLIQGDKHIIGREEWTRIIKERREQYGVKHIHFHIQDMRIFNGRVHLKVHYEIKFDGQSVTIDSEIIITKVDGRWYFESETKR | 1.11
SEEEEFSHNLLNFMLHVIHTGDFDLLLDLMDPDTRVDINGKRHHGRDAMRIWVTLLGIERVETDVHHISIYGDKARIDGRVHYNGKTQRFEIHSRKIDGKWLNTEIKWD | 1.09
SEEEEESKIISKLAIEETKTGDFESIRRNADPRARSDVDGQEMHGRELLEHIFRWIIEKAGVDKVETDLHELRIVGDKVHVRTKLHIGDWRIEVEIIVRKINGRWHLHSMRFSLR | 0.646
EEMERDIKHAVEVMIRFWETGDERLLTELADPDTKSKIDGRTFHGREDIHKLFHSVIEKVKNIRIEFKRISVQGDKAKIDGTNNFNGREIKTDITLWKFDGRWILESIEIG | 1.43
SEEEEDAEEFSRLFAELMKTGDEESLHRLADPDVRLHYGDKDHHGREQYTESWKRILDELGVDNVRIELKSVRVINGVVYVDSLVRVGDKTFRLIVIFRKINGRWRLESVKVE | 1.29
SEEHDKLQRLIRQWWSEFETGDEDKLTEMFDPHARLHIDGRDVIGRENVSKFVFDFFFEMRIHRTHIEHVDAQGDFLILHYHVRGTVNGRESDIHVLIIFTVVNGRMKSVHVHNE | 1.38
DEEQRHAHKIVDRLLELIMTGDEDDLYRLADPNTRIDINGKKFHGMDFWFHLLRRVDHFEVEDFSLKRSDRVDGVAELDHRTTIRVIIGDKTIRLEIRHRMWVVKVDGRWKIEEVVIR | 1.04
DEEHEVLRRMVERIREMEKTGDWERYATMADPNTRVDVNGVELHGMENVAFWFWLHLYRHGIEIKDIRVRDIKVQGEKYQEDGELYGHINGQTTILEVHLEITFVNGRIHSEKISIK | 1.25
DEDTREKRRILEESLHIFETGDWEAMLKNADPNVRSEIHIGDKRLEFHGMRNWLEEWLTRLEKIKNMTFRIHDIRRQGDKVHIDGDLHVNGKHSKVRIELIIVDGVIHTLFFFDH | 0.953
REEEKNLHTQMRLFAHALWTGDEDEIHRNMDPHVRSDIDGRELVGREWMIRLIEELRIRHVHIRHFHLQGDKLHLDTISHVIVNGVEVDMHTRVDVEKVNGRWLITSIRFD | 1.18
SEEENILEEMLKIFYESSRTGNEKTMQELFDPHARIEFEGVENIGMELAMRLTTHWRLQTVHIKDVRVIDGQIHMDGEERGVINGQEIRTEVDIISIKIDGRWLFHSKQIN | 0.369
DEDEKRELARRFAKNFLHGDHDNIRDLADKDVDAQVGDQTFTGTEQLMRVVKEVRDRVDHFNLTSVDVHNGQADIHARAKVNGRDYRVKIRIKIHNGRILHVQFNRR | 1.31
SELEHLMEEAWRLLLEAIRTGDEKLTNKLLDPNVRIEVGEFHYHGRELMLTWFKYELKHLRFKDSRIDHFDVVDGVAKMRTTDTNLVNGRDVTLDVIYVILKVNGRWVFHSMEIR | 0.861
DEDRLREQATNFIEAMQTGDTKRVDEQIDKDAQLVVGEKKYEGREQISTFVKEMHHQFDHVRLQRVTVSGNKVLLDVVMDFNGKDLRINIVIHMNNGKISQVQVDYTNPEDAKTARG | 0.914
SEDEEYLKRALELWDELVKTGDEHRSRRLFDPNARLEIGDKEYHGREEVTHMLRWLIKEIRVHSVTLKDFRSQGDKLIADTRQNREYNGKSDNVSLIMIIIKVDGRWLIESIKIE | 1.41
TEEETETRNLLELFIRSLHTGDEDLTKRLLDPNVRLELGEWEAHGRESVSEVLRLLWELLGVKHIEHHVHDMRVFNGRVHADTRVIMVFDGREHRIETELIVVKIDGRWFIKSIHIR | 1.61
DEIEKHHRELIELLFHWWHTGDFDSFHRFADPDVKLDFNGVEIHGRERANEFMTRLKEEIRIDDVKLERVQVIDGRMIIHGRRDGNVNGQKEDREVELYVIAINGRIKSVEIRIR | 1.71
DEWEELIEETAENIIRFIETGDEDFFRTFADPHMRFIYDQGDFRLIDHGREKVSEWLIRFLQEMRIIFIIEDVKVQGDKAHSQGRIHVNINGQRHEFNSRVIVVWVNGRLKYFRMSVR | 1.43
SEDDEDLKFAWDHLLRSWLTGNFDFFKEMFDPHTRLEQGEKEHHGRNAFERYLRELGIDHIKNIHIEDVEIQGDKMRLHGRQHIFVNGREINLEVTYIILKINGQWHLHRVRIK | 0.846
SDEEESFFTMLELFVEYLHTGDEHEFKKLADPHVRSLYDGVELHGREWFIRKFREMRVKSLHFHHSDIHIINGRARARIDVRLDGEVNGVEDLTETEIRLEVHKVDGQWVFHSVEIHRK | 1.33
DEDEKDAERAVKHWIKLMHTGDEELLIRLFDPHTRVEIDGVEFHGREKVTELFREFTKRVKNVRIILRRYRIVGEWIEVDTEVRVGDKSSEVHLVILKVDGKWIMHVEHYK | 1.85
DELTRDFEEATELLIRILLTGDEDIFREMADPNVRLHYGDKTFIGREEFVKWLHQWRIEDIKIDHVDLQGDYAIVHGRIRTVIGDKEHKVDTKWIIRKYNGKWDIREVHIR | 2.07
DEEEKDVQKILKIMIESMKTGDEHTIERLVDPHVRLIINGKRLHGWELFVKIVHHEAEHARVDEIRIDHMHVIDGRAHLYLTIKRTVGDKHIKLDLEFIWSKFDGRWHVEEERRE | 1.14

Sequence | protease stability score
SELHEEIHKMVQEFLELFLTGDFHRIKQLMDPNVKLIYGDKLFHGRENVEKLHEELRWRYKNATIHVDLREITIFENRAVTDTSIEFDVNGKHISHETKVIIEKIDGQWVIKSIYIN | 2.13
DEEHREAREAVEDDLRELITGNWDMLRRNLDPRMRLNIDGQDIHGRESVHKRWVELMEELGIDHLELHRVDVIDGRIHTDGHERVDGKHIKVLIVAVKINGRWIIKRLHVH | 0.675
DETREIAIKMIELWIHAVKTGDEDRMTELLDPNALLIIGDKKIHGRENLLRFWKRIDHHHLRHIEIKEITFFNGQVEDDGIVEEELRVNGREFEIDSRVLYILKKVDGRWIMRTIEVK | 1.88
SEDEERLRKFAEHMVNLWFTGNENELTKLIDPDTRIDIDGKELHGMELAFRVLQEHLEKLGVKHQEVRDVEIYGDKFILHWTLHVGDFTLRMEVRIVVINGRVKSMEFRTDHR | 1.89
DDEEKRYRLFYKIALTMFETGDWQILHELADPHVKVRVGDKDLHGREELTHFWKELVERYPNMKIRLDDLSLQGEKIHIEGTWHFDGKELTTHIDLIMVDGKLKETRYEHK | 1.4
SEEHEDAHEMFELWSILLITGDERILHQLMDPDAKTTIDGQEFHGREKLIEVFREFLKRIDHIHEVEVTRMTFFDGRLHINLRVHVTINGVHRQFRVIIIIVKIDGRWVIQSQEIV | 1.63
DDWEEVTRRSVEEFIRAIDTGDEDFLRTMVDPDTRVEINGVEVHGMEELMRLFSEHIKKVKNIRFHLEIRHVESQGDKIRIEGHEESNVDGRHRKKSTEMHWIKVDGRWFLHRVILR | 1.39
DEKQEFIERIAKELLDSWLTGDEEHLRNMMDPHVRTDVNGREFHGREETIKAMQILGVDHLEIKDYRVINGRIHANSRMWIGDKQIETHLILRVVNGRVKEIKIEIR | 1.97
DEWEETAKKATKDQLRDVATGDEDSHESLLDPNVKLQVGDKTFHGREEIHRWLREFLNKIPNIRLEVKEIHTQGDFVILDMKMDIDGREIHVRIVMIKVDGRWFVNKLIII | 0.615
DKEKEDLKKLSDWWLHAIETGDFETIFRLLDPHVRIEINIGDKTHSIHGREEFYKWLHRVKNLQMTIHHSEPIGDKIRLHGFFVIDGVHHDTRHELYFIDGRLHEVHIHVI | 2.21
SDMDEMISRFRREVEHSMQTGDERFDHEMADPHARFWINGVLFHGRHALEMWKEELGVDNFKIRHIHIRDEKIQGNKITLDVEYHLLVNGQQVDLRVILIYRKVNGKWTLEEERLV | 0.851
SEEDKYAKLVIRLLEEMIRTGDEESSIRLADPHARVNINGKDMHGREEFTKWIRQFDVVRDFELKDSDYQGDFIFVDGVLDGEVGDKRMRTKVEIIIFKFNGKWRTKEVWVR | 1.38
SEKEELDQKFIEDYIRHLLTGDFESLTKMADPNVRLSIDGQNHHGRENFERFAFEWIEKYKNVRIHVRDVHVVDGQAHIIMTLDINGKTREVHIEVFIVNGRIKSNELRYR | 1.36
REEDERDHRISELLFDLWVTGDWEIFHHLADPNVKANINGQETHGREKIMRIMMRMIHEFGFKHIQLEDSTVINGRVHQQIKVRVGDKSEEFNIHHHVVDGKIKHIHIEVR | 1.36
SEKRQEERKMLELIEHYWQTGDFELLRELADPDTKVRIGDKERHGWEAYIEILRTLGADHMSIRDQKTVGDYVILHIDIRIGDKRYETTLVSEKFDGRWILRRSEFR | 1.16
DERKEMTRHFTEEWIRLWETGDFEHMHDLFDPHARIIIDGQDHHGMEHVNERWRRIKNIRLEIKDFKVYGDKIFIDLKVTVNGREEKVEIIVVVVDGKFKMIEFRFV | 2.11
DEHHRWLEQALHLWIHTILTGDEKVLHELFDPDVRLNVDGQDFHGRELMIKWFHDILRKFKNIRIKHIHIEDRRYYDGRLEIHTSVNVEFNGRPHEEKYRIIAFKIDGRWRLKEEEFH | 1.8
SDEEHLAERASKEWRHSVRTGDEHQLHEMIDPHVKLIVGDKEFHGREHFLEHLKHLRIKNVDIKRIRIIGDKVEIDSELHGHVNGVEIRTREHIHIEKIDGRWVITEVIWV | 0.955
DEDEEVIRRMLETELNAVKTGDWRKFYELADPSVLVDIDGKKIHGRELWSRHLMHLRIDEIHIRIDHMDVVNGVAELHIKMEFRGTIDGVHRKQSTEVILFIKKIDGQWVIQKIEVR | 1.27
DKEDEERKRWEERMLQAITTGDEKTLEDLIDPNARYEINGRERHGREDLLKEFSKIKNVRIELRIHHVRFYDGQLEIDLRLILHIDGVDLRHETRIHAQKYDGVWYIKDITFH | 1.02
SELEKFIRKYSDDWRELHRTGDFEIFQELADPHMIFHSIVGDKRTEIHGRESYIEWLREELEHWRIHHIQLRRSTAIGDFAVVDGELDGEFNGQRERRKVKVDLFVVNGQTKHIEFRIH | 1.19
SEDEKTWHKLMEDHIKDWITGNEEKLEENADPHARFELHVGDKRITDHGRDFIEHWVDRIKNLRIELHDFEIQGNKVHLDVRVNVNGVHEIVTIIVIVIDGKLHSLHIHVEIR | -0.08
DEDERLAKHFIELFIESFLTGDFDEVRKLIDPHTRVEIIIGDKVIEDHGWEAYSRTFNHLGIDHIHREDFRVTLVNGRAVLRLQFRIEIGDKEFDMHIHVFSNKINGRWHVERILIYVR | 2.34
DEIEETIKHLMEEWETSMQTGDEDRIKELLDPHARLEIGEWEFIGRERVAHFLSRADHSEYRIRRIRMIGDKIDIRLEVRLHVNGREIRTETHLIILKINGRWFFKSTHIT | 1.62
SDEEREIEHLARLFLEWWYTGDEDTIMKNADPHVRHDFNGVENIGRERVAEVVVHLIRELRIKSMHLHDIDIQGNKVDMNIELDGTYNGKRRKREMEIELVFINGRIKSSHVTIK | 1.17
